Fewer inactive variants are shown than the library holds.
B1: TPR 5TU (parent)
chain: GGAUCUUCUCGAUCUAACAAAAAAGACAAAUCUGCCACAAAGCUUGAGAGCAUCUUCGGAUGCAGAGGCGGCAGCCUUCGGUGGCGCGAUAGCGCCAACGUUCUCAACUAUGACACGCAAAACGCGUGCUCCGUUGAAUGGAGUUUAUCAUG

Variants of: B1
Assay: polymerase ribozyme fitness, log enrichment relative to wild type (log ratio); higher = more active; in vitro selection for triplet polymerase activity
Summary of the method: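 Genotype fitness is the logarithm of its enrichment divided by wild-type enrichment, using inverse-variance-weighted averages of replicates. That logarithm is base 2. Enrichment was measured by Illumina sequencing of input and output libraries from one triplicate in vitro selection round, with frozen incubation at −7 °C, on PCR-built, transcribed mutant libraries of each subunit of a heterodimeric triplet polymerase ribozyme, retaining genotypes with ≥10 input reads and ≥1 read per output.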

Row | Variant | polymerase ribozyme fitness (log ratio)
1 | A20U A24U G83C C93G G143A | ≤ -4.2
2 | A21C A41C C51U C85A | -3.05
3 | A21C C35A C87U | -3.56
4 | A20C C27G C96G A115U | ≤ -4.2
5 | A20U A26U A40C U44A C105G C114U C116A | ≤ -4.2
6 | A20G C63U C96A G143C | -3.2
7 | A20C G48U G100C C116A | ≤ -4.2
8 | A19U A49U G71A C93U U102G C103G | ≤ -4.2
9 | A21C C85G C87U U145G | -3.2
10 | A19U G25U C38G A52C C75U C118G C131A A142U | ≤ -4.2
11 | A19G C57U G92A U104G C116U | -4.18
12 | A20C C149G | -2.96
13 | A21C C51U G59C G140A A142U | ≤ -4.2
14 | A19G C85A G86U C93U U148A | ≤ -4.2
15 | A20C A28U C35A G67U U102A | ≤ -4.2
16 | A19U A23U U61A C99A U101G G136C A137C U145A | ≤ -4.2
17 | A20U C69A | -2.18
18 | A20G C54U A107U A120G | -3.56
19 | A19U G62A C96G | -1.02
20 | A21C C54A | 0.0369
21 | A21C C54U | -0.0517
22 | A19U A20U A24G G42C U55A C57A U78C G86U A119U | ≤ -4.2
23 | A21C C27A C43U A89U G92U G126A U145A U151C | ≤ -4.2
24 | A19U A20C U109G | -2.07

Row | Variant | polymerase ribozyme fitness (log ratio)
25 | A20U C38U C85A G86U | ≤ -4.2
26 | A21C A52C C57A G88A G92A A97U | ≤ -4.2
27 | A19U | -0.43
28 | A19U A73G | 0.504
29 | A20U A41U G59A G67A G86C | ≤ -4.2
30 | A20U A24U G58C C96G A119G | ≤ -4.2
31 | A21C G25C U53A G74A C87G | ≤ -4.2
32 | A20U A24C A49C G71A C72A C93U C103G U109C | ≤ -4.2
33 | A20U G62C C63U C95U A122G G143A | -4.12
34 | A19U C93U A97U G141C | -2.49
35 | A19G C27U C35A A73G U77A G80C | ≤ -4.2
36 | A20G G71A C96A | ≤ -4.2
37 | A20U C87U G88C U101A U146G | ≤ -4.2
38 | A20C A41U G50A U90A C93U | ≤ -4.2
39 | A20U U53G C72G C95G C108U C118A | ≤ -4.2
40 | A19G G81C G92U U134G | -2.69
41 | A20C A26G U56A C63U G67U G80A C85U G86C C103G | ≤ -4.2
42 | A20C U55A G71A C96U | -3.43
43 | A21C A30U U33G A60U C85A | ≤ -4.2
44 | A19U U104A | -0.0348
45 | A20U A23U G42A G67A C93U | ≤ -4.2
46 | A20U G25C G50C C118U | ≤ -4.2
47 | A20G U144A | -0.576
48 | A20G C38U G88C C96A | ≤ -4.2

Row | Variant | polymerase ribozyme fitness (log ratio)
49 | A21G A26G C38G C72U C87G A89U A150G | ≤ -4.2
50 | A20C A29C G92U C149G | ≤ -4.2
51 | A20U U78A C95U | ≤ -4.2
52 | A20G A23C U53A G92A C93A C95U G141A | ≤ -4.2
53 | A20U A21U A41C A47U G58U U104A | -2.77
54 | A19G C57U G65A U102A G126U | -3.89
55 | A19U A23G | -3.44
56 | A19G C35U C87U C95A | -2.49
57 | A20G A24G U53A A91G A97U U109C U130A G141A A142C | ≤ -4.2
58 | A19G G84A U146C | -0.526
59 | A20U G34C C96G | ≤ -4.2
60 | A19U C95U C99A U145A | -2.13
61 | A19U U53A G71C G84A C96U A97U C108G G140U | ≤ -4.2
62 | A20U C79U | -3.19
63 | A21C C27U G59C C69A | -3.75
64 | A19U C93U U148A | -3.95
65 | A19G C51U C95A A115U | -3.61
66 | A20G C85A U104C C105G | ≤ -4.2
67 | A19G U102G | -3.38
68 | A20U A26U G83C | ≤ -4.2
69 | A19U A22G G67U C93A G126A C131A | ≤ -4.2
70 | A20C C36U G86A A89G C93A G94U G140A G143C | ≤ -4.2
71 | A19U A39U U56A | -2.83
72 | A20U C27U G46C C95U | -3.76

Row | Variant | polymerase ribozyme fitness (log ratio)
73 | A20G C93U C99A G124U | -2.78
74 | A20U U55G C96U U134G U144G | -3.67
75 | A19G U44A G58A G67A C87A A106G G141U | ≤ -4.2
76 | A19U C69A A98U G140C | ≤ -4.2
77 | A20G G48A C69A A98U A142G | -3.3
78 | A20G G83U | -0.993
79 | A21C A47C G58C | 0.582
80 | A20C G80A U82A C93U A98C | -2.56
81 | A19U C57U G81C C93G C125A | -3.42
82 | A21C G94A U148A | -3.72
83 | A20C G83C | -1.3
84 | A20U A22U G67C C79U C99G C118U | ≤ -4.2
85 | A20U A40C G59A U77C U101C C108A U146G | ≤ -4.2
86 | A19G C27U G59U G94C | -2.46
87 | A21C A24G A28G A29U G71C G83A G124U | ≤ -4.2
88 | A21C C27G G83C A113U G140A | ≤ -4.2
89 | A19U G92U U102A U146C | -2.35
90 | A20U C85A G94C A121C | -0.745
91 | A20U C85U | -1.3
92 | A21C C27G A64C C85A | ≤ -4.2
93 | A19G G92A G124U | -3.61
94 | A20G G94A C105G | -2.04
95 | A20C A40C U56G C96G A121U | -1.15
96 | A20C A21U A30G A40G G94U A121G A137U | ≤ -4.2

Row | Variant | polymerase ribozyme fitness (log ratio)
97 | A20U A30U A39U G62A G68A G140U | ≤ -4.2
98 | A19G U82C C116U C125A G141U | ≤ -4.2
99 | A21C C57U C87G G126C A137C | ≤ -4.2
100 | A19U A26U | -2.56
101 | A21C A24G A52G G67A C85A G141C | ≤ -4.2
102 | A20U C54G G70C C79G G92U A107U | ≤ -4.2
103 | A20U | -1.18
104 | A20G | -0.287
105 | A20C | -0.413
106 | A20U G133C | -3.79
107 | A19U A37C U82G A89U C95G A97C A107U U127A | ≤ -4.2
108 | A19G A52U G83A A98G C118G G124A U134C G140U | ≤ -4.2
109 | A19U G58A G62A G67A A89G C108A C116A G152U | ≤ -4.2
110 | A19U C93A | -2.7
111 | A19U C93U | -0.795
112 | A21C C87U A89C A98G G112U | ≤ -4.2
113 | A19U G80U | -0.442
114 | A20G G81C C93U C103A G152A | -3.74
115 | A21C U31A A49C U61A C93U G133C | ≤ -4.2
116 | A20G A91U G124U | ≤ -4.2
117 | A20G U148C | -1.93
118 | A19U U53G U55A C85G | ≤ -4.2
119 | A21C G34U U55A C132G U135A | ≤ -4.2
120 | A20G C54A G68A C87U | ≤ -4.2

Row | Variant | polymerase ribozyme fitness (log ratio)
121 | A20U A37G A120C A142C | ≤ -4.2
122 | A20G G126A G136A | 0.15
123 | A21C C36U C57A C95U A97G A98U C125U | -3.21
124 | A19U A20U C57G G58A G88U G92C C125A C131U U148C C149A | ≤ -4.2
125 | A19G U44G C63U C76G C103A C125A | ≤ -4.2
126 | A20U C51U C79A C93A A97U U148G | ≤ -4.2
127 | A19G C75U C93A | -3.68
128 | A21C A39U C95G A113U C149U A150G | ≤ -4.2
129 | A19U G83A U90A G94U | ≤ -4.2
130 | A19U U56A | -0.835
131 | A21C G59C A98G C125G G136A U146G | -1.19
132 | A20C G81U G94U A120U U151C | -4.13
133 | A20C U55A | -0.798
134 | A20G A41C C54G G83U C87G A98C C116G C132U | ≤ -4.2
135 | A20U A73G U104G A115G | ≤ -4.2
136 | A19U A30U C36G A97U | ≤ -4.2
137 | A19G U53A A91G C95U U104A A121C G126C U135G | ≤ -4.2
138 | A21C C125A | 0.331
139 | A19G C35U C75G C129A U135C U145G | ≤ -4.2
140 | A19U A41C G50C C96U C99U U101G | ≤ -4.2
141 | A19U U55A C76G C93A | ≤ -4.2
142 | A20G A26C A49C G68C C72G G81U C85A C93G G126C | ≤ -4.2
143 | A19U A23U A26U C54U A60G A120U U151G | ≤ -4.2
144 | A20U C43U C96U C114U G141C | ≤ -4.2

Row | Variant | polymerase ribozyme fitness (log ratio)
145 | A19U A52C U55A A60C C76U G83A C85U C129G A150G | ≤ -4.2
146 | A21C C43A U45G G48C A73G G86U C96G A97C G140U | ≤ -4.2
147 | A19U G62A A73U A110G A121U | ≤ -4.2
148 | A21C A40C U45A A73G G83U C96A | ≤ -4.2
149 | A19U U33G A40C C87U C93U C103A | ≤ -4.2
150 | A20U A73G C85A C93A G141C | ≤ -4.2
151 | A20U C54U C95U C96A | -2.31
152 | A20C G50C C54U G58C G62A C103G C125U A142C | ≤ -4.2
153 | A21G A29C G88A G92C C96G U102G A107U | ≤ -4.2
154 | A21C A47C C96A G133C | -1.54
155 | A20G A24G A39G A40C C76A G136U G141A | ≤ -4.2
156 | A21C A23C G80A U82G G86U A137G | ≤ -4.2
157 | A20C A40C C103U U145C | -0.185
158 | A21C C85G C114U | -3.13
159 | A20U C32U U77G A142U | ≤ -4.2
160 | A21C G136A | 0.615
161 | A20U A47G A89U C105U | -2.65
162 | A20U A52C C93U | -3.12
163 | A20U G84U A98G | -4.1
164 | A19U A91U | ≤ -4.2
165 | A19U A91G | -2.85
166 | A19U C96U A120G A121C | -0.837
167 | A21C G83U C116G | -0.153

Reference: the RNAGym collection of RNA variant scans (doi:10.1073/pnas.2313332121)
